The text below walks through data of US20230086210A1.

In experiment [1] the target is human 4-1BB on Jurkat-hu4-1BB-NFκB-luc2 reporter cells (human) (UniProt Q07011). Description: cell-based or functional assay. On the set-up: unit not given beside the values.
Experiment [2] has as its target human PD-L1 on MKN45-huPD-L1 cells (human) (UniProt Q9NZQ7). The experiment in a line: flow cytometry on MKN45-huPD-L1 cells, area under the binding curve. On the set-up: unit not given beside the values. (In general: In flow cytometry, cells or beads pass a laser one at a time.)

human 4-1BB on Jurkat-hu4-1BB-NFκB-luc2 reporter cells (human), sequence (Q07011 24-255): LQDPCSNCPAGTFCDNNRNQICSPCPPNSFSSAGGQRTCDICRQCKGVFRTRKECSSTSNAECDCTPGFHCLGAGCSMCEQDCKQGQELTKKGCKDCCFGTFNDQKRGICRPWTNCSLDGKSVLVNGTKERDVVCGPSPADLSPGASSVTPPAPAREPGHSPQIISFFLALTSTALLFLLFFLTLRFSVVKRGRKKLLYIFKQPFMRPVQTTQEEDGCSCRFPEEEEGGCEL
human PD-L1 on MKN45-huPD-L1 cells (human), sequence (Q9NZQ7 19-290 limits assumed): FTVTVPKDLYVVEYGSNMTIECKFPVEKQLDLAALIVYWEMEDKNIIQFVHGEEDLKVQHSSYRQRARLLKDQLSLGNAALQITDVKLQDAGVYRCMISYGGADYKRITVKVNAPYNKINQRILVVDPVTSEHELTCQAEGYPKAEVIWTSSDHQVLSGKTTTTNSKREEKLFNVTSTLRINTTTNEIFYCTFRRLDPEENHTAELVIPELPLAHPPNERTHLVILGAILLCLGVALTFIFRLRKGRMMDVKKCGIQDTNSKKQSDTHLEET

Turning to DP47 huIgG1 P329G LALA (antibody), the AUC of NFκB-activation-induced Luciferase activity curve in experiment [1] was 112. Further, the AUC in experiment [2] is 248.
